Measured values as given in publication doi:10.1101/2020.06.09.143594 (bioRxiv, 2020).

Target: the molecule itself
Experiment: cross-linking

B1: σ1 M332C, S370P, Q371E, S403C of the HeadΔSA mutant virus, on purified virions (natural protein, UniProt P04506 1-470, looked up)
chain: MDASLITEIRKIVLQLSVSSNGSQSKEIEEIKKQVQVNVDDIRAANIKLDGLGRQIADISNSISTIESRLGEMDNRLVGISSQVTQLSNSVSQNTQSISSLGDRINAVEPRVDSLDTVTSNLTGRTSTLEADVGSLRTELAALTTRVTTEVTRLDGLINSGQNSIGELSTRLSNVETSMVTTAGRGLQKNGNTLNVIVGNGMWFNSSNQLQLDLSGQSKGVGFVGTGMVVKIDTNYFAYNSNGEITLVSQINELPSRVSTLESAKIDSVLPPLTVREASGVRTLSFGYDTSDFTIINSVLSLRSRLTLPTYRYPLELDTANNRVQVADRFGCRTGTWTGQLQYQHPQLSWRANVTLNLMKVDDWLVLSFPEMTTNSIMADGKFVINFVSGLSSGWQTGDTEPCSTIDPLSTTFAAVQFLNNGQRIDAFRIMGVSEWTDGELEIKNYGGTYTGHTQVYWAPWTIMYPCNVR
Q: Does B1 bind?
A: Result: binds
